Reference: patent publication US20100183642A1 (CENTRE NATIONAL DE LA RECHERCHE SCIENTIFIQUE, published 2010)
Non-standard residues stand in square brackets, D forms with d. No end group written: not given here. *: point of attachment. Biotin = O=C1N[C@H]2[C@H](CS[C@H]2CCCCC(=O)*)N1; Ahx = NCCCCCC(=O)O

B1: L41 ligand (compound A), biotinylated (peptide)
peptide: KGYY[Ahx]
chain: [dA]K[dK](Biotin)K[dA]K
modifications: also: three KGYY-Ahx arms, each Ahx amide-linked to side-chain amines of Lys2, Lys4, Lys6 of the cyclic chain, head-to-tail to a chain's N/C-terminus
B2: L40 ligand, compound of formula (III-e) (peptide)
peptide: H-K[dP]YY[Ahx]
chain: K[dA]K[dA]K[dA]
modifications: also: chain 2 cyclised head to tail, three chain-1 arms, each Ahx carboxyl amide-linked to one Lys side-chain amine of cyclic chain 2 (C3-symmetric trimer), head-to-tail to a chain's N/C-terminus
notes: Branched synthetic trimer with C3 symmetry: three pentapeptide arms on a cyclic hexapeptide

Legend:
[1] = molecular target: membranous CD40 on Burkitt's lymphoma cells (BL41, Raji) (UniProt P25942); assay: flow cytometry on BL41 cells, 2.5 µM biotinylated L41 developed with streptavidin-FITC; the control panel without streptavidin-FITC (BL41 L41 2.5 -SAvFITC) prints 4.3% for the same quadrant
[2] = molecular target: membranous CD40 on Burkitt's lymphoma cells (BL41, Raji) (UniProt P25942); assay: flow cytometry on BL41 cells, 2.5 µM biotinylated L41 developed with streptavidin-FITC; the control panel without streptavidin-FITC (BL41 L41 2.5 -SAvFITC) prints 1.3% for the same quadrant
[3] = molecular target: recombinant CD40 associated with the constant part of the heavy chain of mouse IgG2a (human CD40 muIg fusion protein, ANCELL Corporation) (human; mouse) (UniProt P25942); assay: SPR (BIAcore 3000): CD40 muIg captured by anti-mouse Ig, ligand injected as analyte
[4] = molecular target: T1, recombinant CD40 associated with the constant part of the heavy chain of mouse IgG2a (human CD40 muIg fusion … (human; mouse, UniProt P25942 21-193, limits assumed); assay: as above
T1 construct: Bought reagent; Captured on the chip by rabbit antibodies against the constant part of mouse immunoglobulins; not shown: constant part of the heavy chain of mouse IgG2a
T1 sequence (P25942 21-193 limits assumed): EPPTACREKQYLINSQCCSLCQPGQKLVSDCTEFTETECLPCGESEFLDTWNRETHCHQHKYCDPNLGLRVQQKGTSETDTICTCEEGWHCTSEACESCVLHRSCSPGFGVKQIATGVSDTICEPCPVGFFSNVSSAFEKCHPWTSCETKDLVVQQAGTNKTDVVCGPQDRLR

membranous CD40 on Burkitt's lymphoma cells (BL41, Raji), sequence (P25942 21-277 limits assumed): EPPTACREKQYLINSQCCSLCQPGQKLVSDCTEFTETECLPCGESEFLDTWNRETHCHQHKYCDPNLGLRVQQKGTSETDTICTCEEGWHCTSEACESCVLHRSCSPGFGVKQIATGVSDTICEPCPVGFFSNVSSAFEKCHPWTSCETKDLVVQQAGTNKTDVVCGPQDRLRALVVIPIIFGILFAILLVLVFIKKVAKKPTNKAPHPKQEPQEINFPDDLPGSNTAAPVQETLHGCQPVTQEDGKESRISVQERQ
recombinant CD40 associated with the constant part of the heavy chain of mouse IgG2a (human CD40 muIg fusion protein, ANCELL Corporation) (human; mouse), sequence (P25942 21-193 limits assumed): as the sequence (P25942 21-193 limits assumed) above

| Binder | % of cells in the upper left quadrant (FL1-H above the line, low FSC-H) [1] | % of cells in the upper right quadrant (FL1-H above the line, high FSC-H) [2] | Kd [3] | Kd [4] |
| --- | --- | --- | --- | --- |
| B1 | 10.2% | 23.5% | 28 nM | – |
| B2 | – | – | – | 310 nM |
